B1: Dolichol-phosphate mannosyltransferase subunit 3 (Cricetulus griseus (Chinese hamster)), Q4LDX8 (parent)
chain: MTKLAQWLWGLALLGSAWAALTMGALGLELPFPCQEVLWPLPAYLLVSAGCYALGTVGYRVATFHDCEDAARELQSQILEARADLARRGLRF

In the experiment the parent is B1. The following applies: with dpm1_human DPM1, O60762.
Sequence of dpm1_human DPM1, O60762 (O60762 whole entry): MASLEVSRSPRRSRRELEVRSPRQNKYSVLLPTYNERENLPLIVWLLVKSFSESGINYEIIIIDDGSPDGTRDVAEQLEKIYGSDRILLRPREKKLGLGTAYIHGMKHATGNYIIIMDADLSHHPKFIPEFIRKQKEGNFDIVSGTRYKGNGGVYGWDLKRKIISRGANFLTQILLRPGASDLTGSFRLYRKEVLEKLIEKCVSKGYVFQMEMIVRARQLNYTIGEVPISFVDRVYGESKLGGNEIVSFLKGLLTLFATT
In the case of L74S;I78T;L85S, the “effect of a mutation on the interaction” value was “disrupting interaction”.

The values are drawn from IntAct's records for PubMed 16280320.
